Reference: paper PMC4027171

Biological target: human EME2 (His-EME2) (human)
Assay: co-purification of co-expressed subunits

human EME2 (His-EME2) (human), sequence (A4GXA9 whole entry): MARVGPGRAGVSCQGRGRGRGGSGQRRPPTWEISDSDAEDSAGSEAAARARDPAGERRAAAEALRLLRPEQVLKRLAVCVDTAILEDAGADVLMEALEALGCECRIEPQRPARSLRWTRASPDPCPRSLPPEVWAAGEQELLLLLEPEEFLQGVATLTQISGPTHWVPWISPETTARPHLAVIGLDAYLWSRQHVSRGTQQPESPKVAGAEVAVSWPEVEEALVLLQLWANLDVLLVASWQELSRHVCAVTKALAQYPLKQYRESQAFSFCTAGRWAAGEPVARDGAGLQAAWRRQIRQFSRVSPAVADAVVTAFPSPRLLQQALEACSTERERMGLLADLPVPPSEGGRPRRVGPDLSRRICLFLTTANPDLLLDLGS

B1: human MUS81 (enzyme)
chain: MAAPVRLGRKRPLPACPNPLFVRWLTEWRDEATRSRRRTRFVFQKALRSLRRYPLPLRSGKEAKILQHFGDGLCRMLDERLQRHRTSGGDHAPDSPSGENSPAPQGRLAEVQDSSMPVPAQPKAGGSGSYWPARHSGARVILLVLYREHLNPNGHHFLTKEELLQRCAQKSPRVAPGSARPWPALRSLLHRNLVLRTHQPARYSLTPEGLELAQKLAESEGLSLLNVGIGPKEPPGEETAVPGAASAELASEAGVQQQPLELRPGEYRVLLCVDIGETRGGGHRPELLRELQRLHVTHTVRKLHVGDFVWVAQETNPRDPANPGELVLDHIVERKRLDDLCSSIIDGRFREQKFRLKRCGLERRVYLVEEHGSVHNLSLPESTLLQAVTNTQVIDGFFVKRTADIKESAAYLALLTRGLQRLYQGHTLRSRPWGTPGNPESGAMTSPNPLCSLLTFSDFNAGAIKNKAQSVREVFARQLMQVRGVSGEKAAALVDRYSTPASLLAAYDACATPKEQETLLSTIKCGRLQRNLGPALSRTLSQLYCSYGPLT
B1 gave a stoichiometry N of 1.
